The experiment has as its target T1, Scd5 DxxDxxxD motif peptide (Saccharomyces cerevisiae, UniProt P34758).
T1 chain: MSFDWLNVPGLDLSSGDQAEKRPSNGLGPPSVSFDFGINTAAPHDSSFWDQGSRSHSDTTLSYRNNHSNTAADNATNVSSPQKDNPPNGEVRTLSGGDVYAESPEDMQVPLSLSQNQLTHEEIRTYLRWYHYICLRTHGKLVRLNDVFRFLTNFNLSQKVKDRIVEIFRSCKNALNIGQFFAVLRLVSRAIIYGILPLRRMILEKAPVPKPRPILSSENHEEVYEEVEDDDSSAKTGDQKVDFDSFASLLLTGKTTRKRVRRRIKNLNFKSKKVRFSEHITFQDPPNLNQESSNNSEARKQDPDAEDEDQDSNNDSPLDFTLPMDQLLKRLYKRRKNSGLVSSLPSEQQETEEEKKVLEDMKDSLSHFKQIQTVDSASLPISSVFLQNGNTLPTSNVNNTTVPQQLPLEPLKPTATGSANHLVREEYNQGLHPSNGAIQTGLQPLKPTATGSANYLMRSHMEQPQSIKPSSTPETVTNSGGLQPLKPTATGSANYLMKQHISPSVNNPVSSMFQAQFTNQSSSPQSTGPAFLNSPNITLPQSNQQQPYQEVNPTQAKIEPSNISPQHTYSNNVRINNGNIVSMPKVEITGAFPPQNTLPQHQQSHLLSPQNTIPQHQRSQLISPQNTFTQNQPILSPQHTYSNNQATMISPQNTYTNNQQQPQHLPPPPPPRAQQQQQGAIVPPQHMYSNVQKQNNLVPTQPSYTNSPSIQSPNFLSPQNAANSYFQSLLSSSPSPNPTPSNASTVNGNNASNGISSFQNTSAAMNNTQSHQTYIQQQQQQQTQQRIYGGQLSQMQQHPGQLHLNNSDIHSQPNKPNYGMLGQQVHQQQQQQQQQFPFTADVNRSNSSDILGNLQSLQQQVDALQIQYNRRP
Put plainly: fluorescence polarization. For orientation: Fluorescence polarisation rises when a labelled molecule tumbles more slowly, as on binding a larger partner.

In general, Kd refers to the concentration at which binding is half-saturated. A lower Kd goes with a tighter complex.

B1: PP1 (Glc7) (protein)
chain: MDSQPVDVDNIIDRLLEVRGSKPGQQVDLEENEIRYLCSKARSIFIKQPILLELEAPIKICGDIHGQYYDLLRLFEYGGFPPESNYLFLGDYVDRGKQSLETICLLLAYKIKYPENFFILRGNHECASINRIYGFYDECKRRYNIKLWKTFTDCFNCLPIAAIIDEKIFCMHGGLSPDLNSMEQIRRVMRPTDIPDVGLLCDLLWSDPDKDIVGWSENDRGVSFTFGPDVVNRFLQKQDMELICRAHQVVEDGYEFFSKRQLVTLFSAPNYCGEFDNAGAMMSVDESLLCSFQILKPAQKSLPRQAGGRKKK
modifications: fluorescently labelled peptide
B1 yielded a Kd of 22 µM.

Source of the values: PMC1283537 (2005).
